# Assay results published in the supplement of paper PMC9170038.
# System: MS2 coat protein
# Test: apparent KD of MS2 coat protein; designed switch direction (-1 OFF switch, 1 ON switch): 1; higher = weaker reporter binding
# Method in brief: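 Normalised cluster fluorescence was curve-fitted, and each design's median over clusters is its apparent KD. Before this, SNAP-549-labelled MS2 coat protein was titrated from 0.7 or 1.5 nM, doubling to 3 µM, over RNA switches transcribed on Illumina chips by stalled E. coli RNA polymerase. Titrations had no input, 200 uM small-molecule ligand, or an oligonucleotide input, and steps lasted 0.8–1.5 h (lowest) to 10–20 min (highest).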
# [1] = Eterna round: R95, input ligand: FMN 200 uM
# [2] = Eterna round: R95, input ligand: microRNA oligo, concentration not stated
# [3] = Eterna round: R95, input ligand: none
# [4] = input ligand: microRNA oligo, concentration not stated
Sequence,apparent KD of MS2 coat protein [1],apparent KD of MS2 coat protein [2],apparent KD of MS2 coat protein [3],apparent KD of MS2 coat protein (input ligand: FMN 200 uM),apparent KD of MS2 coat protein [4],apparent KD of MS2 coat protein (input ligand: none)
CAGCGCUGUCGAGAGGAUAUGCGGUGAUGGACAUGAGGAUCACCCAUGUUAGCGACAGCAUCACGGCAGAAGGCUCUACCGCCUG [Soteed Omei mod 43] (puzzle: Same State 2),17.9 nM,22.4 nM,32.3 nM,,,
GCUGCACAUGAGGAUCACCCAUGUCUUCGGAGUCGAGGAUAUGGUCACUGUAAACAGUGGCCAGAAGGCGAGUAGC [SS1 - Son of Teenbexe v6] (puzzle: Same State 1),30.8 nM,37.8 nM,32.3 nM,,,
"GGAGCCGGCCUAGGAUAUUUCAUUAAAUAACAUGAGGAUCACCCAUGUAGGCCAGAAGGCCUUGGGAAGAAGGAGGUCGGCUCC [Loop Effect - U24,U28] (Eterna round: R96, puzzle: Same State NG 2)",,,,12.2 nM,35 nM,46.3 nM
"AAAAGAAACACAGGAUAUACCGCACUUAACGCGGUAGAAGGGUGGGACAUGAGGAUCACCCAUGUGGCCUAAGCGCCAGGCCGC [Tibiorvela] (Eterna round: R96, puzzle: Same State NG 1)",,,,3890 nM,13.1 nM,211 nM
GAUUAACAUGAGGAUCACCCAUGUCGUAUUAUGGGAGGAUAUACGUGGACCGUAGUCCGCGUAGAAGGCCUAAUUG [JL-ss1-3.21 janelle mod] (puzzle: Same State 1),,76.4 nM,,,,
AUUUAACAAGCUUUUUGCUCGUCUUAUAAACAUGAGGAUCACCCAUGUAAUAGCGUGAGAGUAAAUUAUUAAAUAAU [JMF 91] (puzzle: Sensor for hsa-mir-208a),13 nM,39.9 nM,11.9 nM,,,
"GCGAAGAGGUAAGGAUAUGCAUGGCGGAGACAUGAGGAUCACCCAUGUUGGAGACGAAAUCUAGGGUAGAAGGUACCGGGAAGC [ssng2 v2 b] (Eterna round: R96, puzzle: Same State NG 2)",,,,75.4 nM,70.2 nM,110 nM
"AGACUACAACCUCGAACAUGAGGAUCACCCAUGUAAAGAUCCAAGGAUAUGGACAGGCCGAGCUACCAGAAGGUGGAAAGAGCC [Eternabot solution 7] (Eterna round: R96, puzzle: Same State NG 3)",,,,40.9 nM,38.4 nM,69.8 nM
"GGAGCCGGCACUGAGGAUAUUCAUAUUAAAACAUGAGGAUCACCCAUGUAGGCCAGAAGGCCUUGGGAGAAGGCAGGUCGGCCCG [Bibimaor] (Eterna round: R96, puzzle: Same State 2)",,,,21.7 nM,250 nM,311 nM
"GUAGCAGGCACAGGAUAUGUUGACCAGGGAGUACAUGAGGAUCACCCAUGUCCGACACACCGGCAAUAGAAGGGUGAGUGGCAG [Eternabot solution 17] (Eterna round: R96, puzzle: Same State NG 2)",,,,35.8 nM,44.9 nM,78.1 nM
"GGACGUCAACUCAACAAUUAAACAUGAGGAUCACCCAUGUCACAGGAUAUGGAUCCUAAUUGGAUCCAGAAGGGUGAGACGUCC [Fiskers NG3ss - 42] (Eterna round: R96, puzzle: Same State NG 3)",,,,95.9 nM,100 nM,79.2 nM
"AGAGGAGGAGCAGGAUAUUCGAAGAAGAACGUGGAAGAAGGGUUCAUGCGAUGACAUGAGGAUCACCCAUGUACCGCGCGAGGA [AK SSNG1-V2-11] (Eterna round: R96, puzzle: Same State NG 1)",,,,50 nM,42.9 nM,67.6 nM
GCUCUACAUGAGGAUCACCCAUGUCCGAACGCGCGAGGAUAUGCAUGGGCGAAAGCUGGUGCAGAAGGCGUGGGAC [2theCorner] (puzzle: Same State 1),315 nM,202 nM,358 nM,,,
"UUCCCAUCGGGAGGAUAUGGUUCCUUAUUGGUUCUAGAAGGUCCAACAUGAGGAUCACCCAUGUGGGAGUGGUCUAAUGACCUC [SS NG10LRO05] (Eterna round: R96, puzzle: Same State NG 1)",,,,889 nM,256 nM,702 nM
"GGAAGGAGGUCAGGAUAUGAACGGAAGGUACAUGAGGAUCACCCAUGUUACGGAGGAAACCCACGUUAGAAGGGACAAGGAAGG [AK SSNG2-V2-4] (Eterna round: R96, puzzle: Same State NG 2)",,,,19.6 nM,15.6 nM,30.5 nM
"GAGGGACAGACCAACAUGAGGAUCACCCAUGUCCUCGCAGGUCAGGAUAUCCGGCCAACAGGCAAGGAGAAGGGACGGUGAACC (Eterna round: R96, puzzle: Same State NG 3)",,,,418 nM,344 nM,479 nM

Sequence,apparent KD of MS2 coat protein [1],apparent KD of MS2 coat protein [2],apparent KD of MS2 coat protein [3],apparent KD of MS2 coat protein (input ligand: FMN 200 uM),apparent KD of MS2 coat protein [4],apparent KD of MS2 coat protein (input ligand: none)
AGUCCAGCCUGAGCUGGACAAAAGCAUGUACAUGAGGAUCACCCAUGUCAUGUAUAAGCUUUUUGCUCGUCUUAAUA [Zipper 49 - 11] (puzzle: Sensor for hsa-mir-208a),24 nM,11 nM,21.3 nM,,,
UCUUGGUUUUUGCUCGUUUUUUGUGUUGAACAUGAGGAUCACCCAUGUAUUGUACGGUCCGAUUUGAUAGUGGUCCG [JMF 20] (puzzle: Sensor for hsa-mir-208a),26.1 nM,15.7 nM,27 nM,,,
"AGCUAUUACGAAGGAUAUAGGGACAUGAGGAUCACCCAUGUGUACAUGAGUAAAUGUGAUCACGUCUAGAAGGUUGUACUAACA [SameState NG2 #36] (Eterna round: R96, puzzle: Same State NG 2)",,,,474 nM,383 nM,430 nM
AUAAAACAUGAGGAUCACCCAUGUCAACAAAGUCGAGGAUAUGGGCAAAUAAAAUAAGAACCAGAAGGCGAAUUAU [salish99_ss1_r3_036] (puzzle: Same State 1),31.6 nM,423 nM,1140 nM,,,
UUAUAACAUGAGGAUCACCCAUGUCAUCUAAGUCGAGGAUAUGGGCAAAUAUAAUAAGAACCAGAAGGCGAAUAUU [Mat - Same State 1 - Mod of UCT - D33] (puzzle: Same State 1),141 nM,14.2 nM,49.9 nM,,,
GGUCCAGCCUGAGCUGGACAAAAGCAUGUACAUGAGGAUCACCCAUGUCAUGUACAAGCUUUUUGCUCGUCUUAAUU [Mat - hsa-mir-208a - 87] (puzzle: Sensor for hsa-mir-208a),514 nM,15.1 nM,762 nM,,,
"GGAUGAUGGACAGGAUAUUGAUUGUAAUGGUGUCAAGAAGGGUCUUUGAUUUAAACGACCAGUUACAUGAGGAUCACCCAUGUU [JR_SSNG1_Sub031] (Eterna round: R96, puzzle: Same State NG 1)",,,,133 nM,107 nM,205 nM
"CUUUCUCUUGCAGGAUAUCCUAGUCUUCGGUUAGGAGAAGGGCAAGGAAAUUUGCUAAGCAAGUCUGUAACAGAGAUCCUCCUC [pwkr ssNG1 F9.1] (Eterna round: R96, puzzle: Same State NG 1)",,,,30.8 nM,313 nM,37.9 nM
"AAGCUCGUGUGAGGAUAUGCCGCCGUUUCGGCUGCAGAAGGUGCUACGUUACAUGAGGAUCACCCAUGUCUCUGUUGUUUCGUU [salish99_SSNG1_r04_951] (Eterna round: R96, puzzle: Same State NG 1)",,,,18.7 nM,15.9 nM,20.8 nM
"AUAGUUUCCGAAGGAUAUGAUGAGGAUCACCCAUCAGAAGGUUGGCUAUUGGGUGGACAUGAGGAUCACCCAUGUCUUUCUGUU (Eterna round: R96, puzzle: Same State NG 1)",,,,29.7 nM,39.1 nM,53.6 nM
UUGCAGUCAGGUGAGGAUAUCAUGAAUUUAACAUGAGGAUCACCCAUGUGCUGCCUUGCAGCAUAUGAGAAGGCACCUGGCUGCU [JL-ss2-3.02 Brourd Mod] (puzzle: Same State 2),106 nM,923 nM,859 nM,,,
CUAUCUACAGGUUGCAGUGCUCGUCUUAUACAUGAGGAUCACCCAUGUUAUAGCCCGGUGCUUGCGCUGGGCUGAUU [JL ViennaUCT Tearor mod 2] (puzzle: Sensor for hsa-mir-208a),36.4 nM,16.4 nM,43 nM,,,
"ACUUGCCGCACAGGAUAUGGGUGCCUGUACAUGAGGAUCACCCAUGUUAAGGGACGGAUUACGAACCAGAAGGGUGAGGCGGGC [Tigeti] (Eterna round: R96, puzzle: Same State NG 2)",,,,124 nM,418 nM,750 nM
AUAAAACAUGAGGAUCACCCAUGUCAACAAAGUCGAGGAUAUGGGCAAAUAAAAUAAGAACCAGAAGGCGAAUAAU [salish99_SS1_r3_001] (puzzle: Same State 1),,233 nM,,,,
AGAGAACAUGAGGAUCACCCAUGUGGGAGAGGCAUAGGAUAUAGAGGAGAGAGCGAGGAACUAGAAGGAUGAUGGA [JR_SS1_Sub080] (puzzle: Same State 1),47.3 nM,70.7 nM,91.3 nM,,,
"CUGAGCAGUCAAGGAUAUCACGUCGAAUAGACGUGAGAAGGUGACCAAUACAUGAGGAUCACCCAUGUAAUACAUGAAGCUCAG [SSNG1/12-A1] (Eterna round: R96, puzzle: Same State NG 1)",,,,,26 nM,
